Results from the supplement of paper PMC9170038.

Tests used:
[1] = tested on: MS2 coat protein; experiment: apparent KD of MS2 coat protein; designed switch direction (-1 OFF switch, 1 ON switch): 1; higher = weaker reporter binding; conditions: Eterna round: R98
Description: (§1)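 RNA-MaP: designed FMN/MS2 RNA switches (84 nt design region) are transcribed on-chip within common flanks and titrated with SNAP-549-labelled MS2 coat protein (about 1-3000 nM) in 100 mM Tris pH 7.5, 80 mM KCl, 4 mM MgCl2, without or with 200 uM FMN. Median apparent KD per design; activation ratio = KD,OFF / KD,ON.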

[2] = tested on: MS2 coat protein; experiment: apparent KD of MS2 coat protein; designed switch direction (-1 OFF switch, 1 ON switch): -1; higher = weaker reporter binding; conditions: Eterna round: R98
Description: as §1

[3] = tested on: MS2 coat protein; experiment: apparent KD of MS2 coat protein; higher = weaker reporter binding; conditions: Eterna round: R101
Description: as §1

Sequence	apparent KD of MS2 coat protein ([1]; input ligand: FMN 200 uM) [nM]	apparent KD of MS2 coat protein ([1]; input ligand: none) [nM]	apparent KD of MS2 coat protein ([3]; input ligand: FMN 200 uM) [nM]	apparent KD of MS2 coat protein ([3]; input ligand: none) [nM]	other results
CCUUGAUAAUAUCUUCACAUGAGGAUCACCCAUGUCGCUCGACAGGAUAUAUUUUAUUUGUUUAAGUAGAAGGGUCGCAGAUUC [LRO020_SS NG 3]	142	136			
GCUGCUAUCGCAGGAUAUUACAUGGGAAAUAAUACAUGAGGAUCACCCAUGUAAAAUAUCGUAAAUAAGAAGGGCGAUAGCAGC [Lame State 4 - Jieux - Same State NG 2]	239	1210			
UGAUCGCUUGGAGGAUAUCCAACUAUCCUAGUUGGAGAAGGCCAAGCUACAGAGCUAAGCUUGGAAGUCACUUCCGAUCAACAC [pwkr ssNG1 F9.4.2]	54.9	33.6			
GUACGGAUCAUAGGAUAUCUGCCGGCCGGAGUUAGAGAAGGGUGAUCUAGGAUGCCACAUGAGGAUCACCCAUGUCAACAUCGC [Vemati]	20.9	24.2			
CCGGGCCCGGGAGGAUAUACAUGAGGAUCACCCAUGUAUUCUCGGCCCGGCGAAAGCCGGGCCAUGUAGAAGGCCCGGGCCCGG [high melting point]					apparent KD of MS2 coat protein ([2]; input ligand: FMN 200 uM): 103 nM; apparent KD of MS2 coat protein ([2]; input ligand: none): 24.3 nM
UUAUAAAAUAUAGGAUAUGGAAACAUGAGGAUCACCCAUGUAUGAUAAGAUAAAUUAUGAUAUAGCCAGAAGGAUACAAUAUAU [LRO011_SS NG 2]	28.9	28			
GCUUGCGACGAAGGAUAUGGGUGCCUAAACACGAGGAUCACCCGUGUACAGGAAGCUAAAUGCUCUCAGAAGGUCGUCGCAGGC [United States 10 - Jieux - Same State NG 2]	18.4	36			
GCAGAAGGUGCGGAGGAUCACCCUGUAAGGAUAUGCAUUAGCAAGGAUAUACAGAGGAUCACCCUGUAGAAGGUGCACUAUUCU [pwkr2 ssNG3 DX.4]	1230	1450			
AAAUAAAUCGAAGGAUAUCAGGGUGCACCUCAGUAAAACUGAGGUGCACCCUGAGAAGGUCGAGGAUCACCCGAUCUAAAUAAA [#SharedSequence SLExNG1: 2-2] (puzzle (switch architecture): Small Loop Exclusion NG 1)			114	19.3	
UCAGUAGAGUCAGGAUAUACAAAAGGCGGUCCAUACAUGAGGAUCACCCAUGUAGAAGGGACUCUACUGUAAGUCGGAAACGAC [#StaticStemDeletion - Eli x2 4.005] (puzzle (switch architecture): Small Loop Exclusion NG 1)			15.6	329	
UUAUAAUUAAGAGGAUAUAUACAACAUGAGGAUCACCCAUGUACCCAUGUAGUAGAAGGCUUAUUUUUAUAUAAUAAUAUAAUU [AstrosLoopssng1#9] (puzzle (switch architecture): Small Loop Same State NG 1)			40	148	
GGAGGUCACAUUUACAUGAGGAUCACCCAUGUCGAAAGACAUGAGGAUAUGCUACCUAAUUGGUAGCAGAAGGCAUGGACCUCC [Mat - Same State NG 3 - JL Mod - D28]	226	287			
CAAUUGGCACAGAAGGGUGACAUGAGGAUCACCCAUGUAGCGUGGCAUUCAGGAAGAGCCACGCCACAGGAUAUGUGCGGGCAC [Rigeri] (puzzle (switch architecture): Inverted Same State NG 2)			31.9	24.7	
AGACCUGCUCAGAAGGCGUGUGCGAGGCUGGAAACAGCCUCGAAUUAAAAUCUUCGAGGAUCACCCGAGGAUAUGAGCAGGUCA [#SharedSequence - IExNG2: 20] (puzzle (switch architecture): Inverted Exclusion NG 2)			59.7	11.3	
ACUUUAUUUGAGAAGGUGAAGUGGAAACAUGAGGAUCACCCAUGUAAUACGAAGCGUAUUUUUAUCAAGGAUAUCAAAUAAAGA [WHB=ISS-NG2-MS2FAR3 #bad] (puzzle (switch architecture): Inverted Same State NG 2)			7.58	10.7	
CCUGCACCUCAAGGAUAUCCAGUCGUUUCGACUGGAGAAGGUGAGGAUCACCCACCUAGCCUGACGUUUGUCAGGCAUGCAGGU [#AddUracilToBrourdLoops 1 - Jieux - Exclusion NG1] (puzzle (switch architecture): Exclusion NG 1)			49.5	27	
GCGGGAUGAGUCGUUGGUUCACAUGAGGAUCACCCAUGUAGGGAGGAUAUGCAUCUGGUCCCGGAGCAGAAGGCCCUGCAUCGA [Raedxea]					apparent KD of MS2 coat protein ([2]; input ligand: FMN 200 uM): 1540 nM; apparent KD of MS2 coat protein ([2]; input ligand: none): 555 nM

Sequence	apparent KD of MS2 coat protein ([1]; input ligand: FMN 200 uM) [nM]	apparent KD of MS2 coat protein ([1]; input ligand: none) [nM]	apparent KD of MS2 coat protein ([3]; input ligand: FMN 200 uM) [nM]	apparent KD of MS2 coat protein ([3]; input ligand: none) [nM]	other results
UUAUUAUGUGUAGGAUAUGCGUAUUAUUAUUAUGCAGAAGGACAUGAGGAUCACCCAUGUAUAUUAUUAUUAUAUAUUAUAUAU (puzzle (switch architecture): Exclusion NG 1)			19.1	14.7	
UCGAACGGAAACAAAGUCAAUAGACAUGAGGAUCACCCAUGUAAGGAUAUGCCUACUAAAAGUAGGCAGAAGGUACGCGUUCGA [Contusion 5 - Jieux - Exclusion NG 3]					apparent KD of MS2 coat protein ([2]; input ligand: FMN 200 uM): 27.2 nM; apparent KD of MS2 coat protein ([2]; input ligand: none): 18.3 nM
GGAGACCUCACAGGAUAUGCUGGACUUUGUCCAGCAGAAGGGUGAACAUGAGGAUCACCCAUGUAAAUGGUCUCCAAAUUUAAU [Denovo 55]	33.4	389			
GGUACUCAAAGAGUACCAAUACGAACAUGAGGAUCACCCAUGUAGGAUAUGCUACUCAAAGAGUAGCAGAAGGACAUGUGCCUU [salish99_ExNG3_020 #endbits investigation] (puzzle (switch architecture): Exclusion NG 3)			92.3	15.1	
AAUAAACAAUAAAAGAGUCCACGAAACUUUUGAGGAUCACCCAGAAGGGCUGAGGUAAUACCUCAGCAGGAUAUGGACGUGGAC [#SharedSequence IExNG# - 3] (puzzle (switch architecture): Inverted Exclusion NG 3)			86.8	12.4	
GUGCGAGCCACAGGAUAUCUACAGAUUUUUUGUAGAGAAGGGUGACCUCGUGCACCACAUGAGGAUCACCCAUGUAACUAGGCG [Bianeren]	24.5	82.1			
GUAGCUAUCGGAGGAUAUUCAUACCGGAAACGGACAUGAGGAUCACCCAUGUGGCGAAAGCCUUGGGAGAAGGCCGAUAGCUAC [#DoubleMagnetSystem - jl-sng2-2.23 Eli mod] (puzzle (switch architecture): Same State NG 2)			7.49	215	
AAAUAACUUGAAGGAUAUGACCCUCGAGGUGACUAAAAGUCACCUCGAGGGUCAGAAGGUCGAGGAUCACCCGACCUAGUGAAA [#SharedSequence SLExNG1: 7-1] (puzzle (switch architecture): Small Loop Exclusion NG 1)			7.61	7.54	
AAAUAAAAUAUAGGAUAUGGAAACAUGAGGAUCACCCAUGUAAAAUAAGAUAAAUAAUAAUAUAGCCAGAAGGAUAAAAUAUAA [LRO004_SS NG 2]	34.5	27.6			
GUGCCUUGGGAGAAGGAUAAUUAAUAAUAAAUAAAAGGAUAUUCAUACCGGAAACGGACAUGAGGAUCACCCAUGUGGCACAAA (puzzle (switch architecture): Inverted Same State NG 1)			45.4	186	
CGAGACACUUGAGGAUAUGCUCAGGAUAACUGAGCAGAAGGCAGGGAAACCUGAGGAUCACCCAGGUAACUGGAAAGUCUCGAA [Same State NG1 - A3C, U17G Submission 5B]	46.3	144			
AAAGAUUUUCAAGGAUAUCAGUGGCAAAGCCACUGAGAAGGUGAGGAUCACCCACCUACGUGACGCUGGAAACAGCGUCACGAA [#SharedSequence ExNG1 - 26] (puzzle (switch architecture): Exclusion NG 1)			64.5	21	
UAUUAAAGGUGAGGAUAUGCACAGGAUCACCGUGUAGAAGGCAUCAGGUAGAAGGUGCAGAGGAUCACCCUGUAAGGAUAUAUC [pwkr2 ssNG1 DX.10]	191	1080			
AAAACAUGAGGAUCACCCAUGUAAAGAUCGGUUAAUAGAAGUGAGGAUAUACUAAAUUUUAGGUAGUAGAAGGCACUGGGUACA [JR_SSNG3_Sub034]	28.1	23.1			
UAUUAUAUAUAGAAGGACAUGAGGAUCACCCAUGUCGCCGGGCCCGGGAAACCGGGCCCGGCCAUGUAGGAUAUAUAUAUAGUA [#This is a good prank 9] (puzzle (switch architecture): Inverted Exclusion NG 2)			7.72	5.35	
UCGGUUUUCGCAGGAUAUGGAGGAUAUUCCCACAUGAGCAUCAGCCAUGUCUGCAUGGAAGAAGGCCAGAAGGGCGAGAACCGA [United States 1 - Jieux - Same State NG 2]	11.1	13.6			
UUUUUAUUUAUAGGAUAUGGAGACAUGAGGAUCACCCAUGUAUGAUAAGAUAAAUUAUGAUGUGGCCAGAAGGAUAUUAUUUUU [LRO018_SS NG 2]	85.5	76.4			
